{
  "source": "paper PMC5318940",
  "key": {"[1]": {"target": "histone H2A (bovine (calf thymus)) (UniProt P0C0S9)"}, "[2]": {"target": "M1 protein on the surface of live GAS M1T1 5448 wild type (group A Streptococcus (endogenous in strain M1T1 5448)) (UniProt Q99XV0)", "test": "immunogold transmission electron microscopy; bacteria with 31.25 μg/mL histone H2A, 30 min at 37 °C, washed, fixed with 2% PFA; anti-histone H2A antibody and 15 nm immunogold secondary antibody; particles counted on >20 bacteria"}},
  "data": [
    {"substance": "M1 protein fragment A+B (residues 42-194), recombinant NT fragment (from UniProt Q99XV0 42-194) (domain or fragment)", "values": [
      {"measurement": "histone MIC for the GAS Δemm1 mutant with exogenous 10 μM recombinant NT fragment (rNT)", "setting": "[1]", "value": 2, "unit": "fold"}
    ]},
    {"substance": "histone H2A (from UniProt P0C0S9 1-130) (natural protein)", "values": [
      {"measurement": "gold particles per bacterium (gold-particles per bacterium)", "setting": "[2]", "value": "> 30"}
    ]}
  ]
}
